This data set concerns K562 CRISPRi cells. The data set is described as follows: Constant region variant library pooled growth screen, K562. It is filed as cell-based, human. Conditions: sgRNA constant region variants; activity relative to the original, un-modified constant region cr995. The procedure, abridged: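 Growth screens in K562 CRISPRi cells were harvested 4-8 days post-selection at >2000× library coverage. Each variant's phenotype was referenced to the unmodified constant region with the same targeting sequence.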

B1: cr104 (nucleic acid)
guide: GTTTAAGAGCTAAGCTGGAAACAGCATAGCAAGTTTAAATAAGGCTAGTCCGTTATCAACTTGAAAAAGTGGAACCGAGTCGGTGCT
modifications: listed as DNA, chemistry not fully specified
Molecule B1 yielded a Mean relative activity of 0.8063.

B2: cr876 (nucleic acid)
guide: GTTTAAGAGCTAAGCTGGAAACAGCATAGCAAGTTTAAATAAGGCTAGTCCGTTATCAACTTGAAAAAGTGGCACCGAGTCAGTGCT
modifications: listed as DNA, chemistry not fully specified
Regarding B2, the Mean relative activity came to 0.8037.

B3: cr886 (nucleic acid)
guide: GTTTAAGAGCTAAGCTGGAAACAGCATAGCAAGTTTAAATAAGGCTAGTCCGTTATCAAATAGAAATATTGGCAGCGAGTCGCTGCT
modifications: listed as DNA, chemistry not fully specified
The molecule B3 gave a Mean relative activity of 0.7791.

B4: cr380 (nucleic acid)
guide: GTTTAAGAGCTAAGCTGGAAACAGCATAGCAAGTTTAAATAAGGCTAGTCCGTTATCAACTTGAGAAAGTGGTACCGAGTCGGTACT
modifications: listed as DNA, chemistry not fully specified
Molecule B4 displayed a Mean relative activity of 1.055.

B5: cr477 (nucleic acid)
guide: GTTTAAGAGCTAAGCTGGAAACAGCATAGCAAGTTTAAATAAGGCTAGTCCGTTACCAACTTGAAAAAGTGGCACCGAGTCGGTGCT
modifications: listed as DNA, chemistry not fully specified
As for B5, the Mean relative activity is listed as 1.055.

B6: cr394 (nucleic acid)
guide: GTTTAAGAGCTAAGCTGGAAACAGCATAGCAAGTTTAAATAAGGCTAGTCCGTTATCAACTTGAAACAGTGGCACCGAGTCGGTGCT
modifications: listed as DNA, chemistry not fully specified
For B6, the Mean relative activity stood at 1.055.

B7: cr931 (nucleic acid)
guide: GTTTAAGAGCTAAGCTGGAAACAGCATAGCAAGTTTAAATAAGGCTAGTCCGTTATCAACTTGAAAAAGTGGCCCTGAGTCAGGGCT
modifications: listed as DNA, chemistry not fully specified
Regarding B7, the Mean relative activity is reported as 0.8044.

B8: cr712 (nucleic acid)
guide: GTTTAAGAGCTAAGCTGGAAACACCATAGCAAGTTTAAATAAGGCTAGTCCGTTATCAACTTGAAAAAGTGGCACCGAGTCGGTGCT
modifications: listed as DNA, chemistry not fully specified
B8 gave a Mean relative activity of 0.7744.

B9: cr818 (nucleic acid)
guide: GTTTAAGAGCTAAGCTGGAAACAGCATAGGAAGTTTAAATAAGGCTAGTCCGTTATCAACTTGAAAAAGTGGCACCGAGTCGGTGCT
modifications: listed as DNA, chemistry not fully specified
Molecule B9 gave a Mean relative activity of 0.7972.

B10: cr905 (nucleic acid)
guide: GTTTAAGAGCTAAGCTGGAAACAGCATAGCAAGTTTAAATAAGGCTAGTCCGTTATCAACTTGAAAAAGTGATACCAAGTTGGTATT
modifications: listed as DNA, chemistry not fully specified
In turn, B10 had a Mean relative activity of 0.8019.

B11: cr449 (nucleic acid)
guide: GTTTAAGAGCTAAGCTGGAAACAGCATAGCAAGTTTAAATAAGCCTAGTGCGTTATCAACTTGAAAAAGTGGCAGCGAGTCGCTGCT
modifications: listed as DNA, chemistry not fully specified
Turning to B11, the Mean relative activity was 0.7698.

B12: cr199 (nucleic acid)
guide: GTTTAAGAGCTAAGCTGGAAACAGCATAGCAAGTTTAAATAAGGCTAGTCCGTTATCAACTTGAGAAAGTGGCACCTAGTAGGTGCT
modifications: listed as DNA, chemistry not fully specified
As for B12, the Mean relative activity is recorded as 0.7949.

B13: cr684 (nucleic acid)
guide: GTTTAAGAGCTAAGCTGGAAACAGCATAGCAAGTTTAAATAAGGCTAGTCCGTTATCAACTTGAAAAAGTGGCACTAAGTTAGTGCT
modifications: listed as DNA, chemistry not fully specified
B13: the Mean relative activity is 0.7672.

B14: cr879 (nucleic acid)
guide: GTTTAAGAGCTAAGCTGGAAACAGCATAGCAAGTTTAAATAAGGCGAGTCCGTCAGCAACTTGAAAAAGTGGCACCGAGTCGGTGCT
modifications: listed as DNA, chemistry not fully specified
As for B14, the Mean relative activity amounted to 0.798.

B15: cr558 (nucleic acid)
guide: GTTTAAGAGCTAAGCTGGAAACAGCATAGCAAGTTTAAATAAGGCTAGTCCGTTATCAACTTGAAAAAGTGGCTCGGAGTCCGAGCT
modifications: listed as DNA, chemistry not fully specified
On to B15, for which the Mean relative activity amounted to 0.7679.

B16: cr859 (nucleic acid)
guide: GTTTAAGAGCTAAGCTGGAAACAGCATACCAAGTTTAAATAAGGCTTGTCCGTTATCAACTTGAGAAAGTGGCACCGAGTCGGTGCT
modifications: listed as DNA, chemistry not fully specified
Consider B16, for which the Mean relative activity is listed as 0.7625.

B17: cr805 (nucleic acid)
guide: GTTTAAGAGCTAAGCTGGAAACAGCATAGCAAGTTTAAATAGGGCTAGTCCGTTATCAACTTGATAAAGTGGCACCGAGTCGGTGCT
modifications: listed as DNA, chemistry not fully specified
Consider B17, for which the Mean relative activity is 0.7927.

B18: cr219 (nucleic acid)
guide: GTTTAAGAGCTAAGCTGGAAACAGCATAGCAAGTTTAAATAAGCCTAGTGCGTTATCAACTTGAGAAAGTGGCACCGAGTCGGTGCT
modifications: listed as DNA, chemistry not fully specified
Regarding B18, the Mean relative activity is on record as 0.7779.

B19: cr652 (nucleic acid)
guide: GTTTAAGAGCTAAGCTGGAAACAGCATCGCAAGTTTAAATAAGGCTAGTCCGGTATCAACTTGGAAAAGTGGCACCGAGTCGGTGCT
modifications: listed as DNA, chemistry not fully specified
For B19, the Mean relative activity is given as 0.7959.

B20: cr443 (nucleic acid)
guide: GTTTAAGAGCTAAGCGGGAAACAGCATAGCAAGTTTAAATAAGGCTAGTCCGTTATCAACTTGAAAAAGTGGCACCGAGTCGGTGCT
modifications: listed as DNA, chemistry not fully specified
Consider B20, for which the Mean relative activity worked out at 0.7774.

B21: cr508 (nucleic acid)
guide: GTTTAAGAGCTAAGCTGGAAACAGCATAGCAAGTTTAAATAAGGCCAGTCCGTGATCAACTTGAAAAAGTGGCACCGAGCCGGTGCT
modifications: listed as DNA, chemistry not fully specified
In turn, B21 returned a Mean relative activity of 0.7636.

B22: cr836 (nucleic acid)
guide: GTTTAAGAGCTAAGCTGGAAACAGCATAGCAAGTTTAAATAAGGCTAGTCCGTTATCAATTTGAAAAAGTGGCACCGAGTCGGTGCT
modifications: listed as DNA, chemistry not fully specified
With B22, the Mean relative activity is 0.7574.

B23: cr484 (nucleic acid)
guide: GTTTAAGAGCTAAGCTGGAAACAGCATAGCAAGTTTAAATAAGGCTAGTCCGTTATCAACTTGAAAAAGTGCCACCAAGTTGGTGGT
modifications: listed as DNA, chemistry not fully specified
In turn, B23 showed a Mean relative activity of 0.7978.

B24: cr119 (nucleic acid)
guide: GTTTAAGAGCTAAGCTGGAAACAGCATAGCAAGTTTAAATAAGGCTAGTCCGTTATCAACTTGAAAAATTGGCACCGAGTCGGTGCT
modifications: listed as DNA, chemistry not fully specified
B24 gave a Mean relative activity of 0.7902.

B25: cr164 (nucleic acid)
guide: GTTTAAGAGCTAAGCTGGAAACAGCATAGCAAGTTTAAATAAGGCTAGTCCGTTATCAACTTGAAAAAGTGGCCCCGAGTCGGTGCT
modifications: listed as DNA, chemistry not fully specified
In turn, B25 registered a Mean relative activity of 0.7776.

B26: cr550 (nucleic acid)
guide: GTTTAAGAGCTAAGCTGGAAACAGCATAGCAAGTTTAAATAAGGCTAGTCCGTTATCAACTTGAAAAAGTGGCACAAAGTTTGTGCT
modifications: listed as DNA, chemistry not fully specified
For the molecule B26, the Mean relative activity stood at 0.7679.

B27: cr215 (nucleic acid)
guide: GTTTAAGAGCTAAGCTGGAAACAGCATAGCAAGTTTAAATAAGGCTAGTCCGTTATCAACTTGAAAAAGTAGCACCGAGTCGGTGCT
modifications: listed as DNA, chemistry not fully specified
B27 displayed a Mean relative activity of 0.8059.

B28: cr819 (nucleic acid)
guide: GTTTAAGAGCTAAGCTGGAAACAGCATCGCAAGTTTAAATAAGGCTGGTCCGGTATCAACTTGAAAAAGTGGCACCGAGTCGGTGCT
modifications: listed as DNA, chemistry not fully specified
Consider B28, for which the Mean relative activity was 0.7667.

B29: cr516 (nucleic acid)
guide: GTTTAAGAGCTAAGCTGGAAACAGCATAGCAAGTTTAAATAAGCCTAGTGCGTTATCAGCTTGAAAAAGCGGCACCGAGTCGGTGCT
modifications: listed as DNA, chemistry not fully specified
As for B29, the Mean relative activity worked out at 0.8009.

These data come from patent US20220259593A1, “CONTROL OF MAMMALIAN GENE DOSAGE USING CRISPR” (The Regents of the University of California, priority 2019, published 2022).
